This is an account of results in article PMC5070911 (Clinical Immunology (Orlando, Fla.), 2016).

This assay concerns the target T1, recombinant form of the extracellular domain of HER2 (amino acids 23-652) (UniProt P04626 23-652).
T1 construct: HER2 (neu/ErbB2), extracellular domain, amino acids 23-652; Bought recombinant protein; also called rHER2; neu; source: bought: e-bioscience, UK
In words: SPR; competitive binding: fixed rHER2 concentration incubated 1 h with 5-, 50- and 500-fold excess of Herceptin, flowed over immobilised EPO. Conditions: both partners purified.

B1: Eosinophil Peroxidase (EPO) (enzyme)
chain 1: not shown
chain 2: VDCERTCAQLPPCFPIKIPPNDPRIKNQRDCIPFFRSAPSCPQNKNRVRNQINALTSFVDASMVYGSEVSLSLRLRNRTNYLGLLAINQRFQDNGRALLPFDNLHDDPCLLTNRSARIPCFLAGDTRSTETPKLAAMHTLFMREHNRLATELRRLNPRWNGDKLYNEARKIMGAMVQIITYRDFLPLVLGKARARRTLGHYRGYCSNVDPRVANVFTLAFRFGHTMLQPFMFRLDSQYRASAPNSHVPLSSAFFASWRIVYEGGIDPILRGLMATPAKLNRQDAMLVDELRDRLFRQVRRIGLDLAALNMQRSRDHGLPGYNAWRRFCGLSQPRNLAQLSRVLKNQDLARKFLNLYGTPDNIDIWIGAIAEPLLPGARVGPLLACLFENQFRRARDGDRFWWQKRGVFTKRQRKALSRISLSRIICDNTGITTVSRDIFRANIYPRGFVNCSRIPRLNLSAWRGT
notes: Eosinophil peroxidase, human, light chain of the mature enzyme; Eosinophil peroxidase, human, heavy chain of the mature enzyme; Native granule protein; source: purified from eosinophils of patients with marked eosinophilia (0.01 M HCl extraction, Sephadex G-50)
Take B1: the binding result is on record as “binds”.
